Molecular target: DDX19B, Q9UMR2-1
Sequence (Q9UMR2 whole entry): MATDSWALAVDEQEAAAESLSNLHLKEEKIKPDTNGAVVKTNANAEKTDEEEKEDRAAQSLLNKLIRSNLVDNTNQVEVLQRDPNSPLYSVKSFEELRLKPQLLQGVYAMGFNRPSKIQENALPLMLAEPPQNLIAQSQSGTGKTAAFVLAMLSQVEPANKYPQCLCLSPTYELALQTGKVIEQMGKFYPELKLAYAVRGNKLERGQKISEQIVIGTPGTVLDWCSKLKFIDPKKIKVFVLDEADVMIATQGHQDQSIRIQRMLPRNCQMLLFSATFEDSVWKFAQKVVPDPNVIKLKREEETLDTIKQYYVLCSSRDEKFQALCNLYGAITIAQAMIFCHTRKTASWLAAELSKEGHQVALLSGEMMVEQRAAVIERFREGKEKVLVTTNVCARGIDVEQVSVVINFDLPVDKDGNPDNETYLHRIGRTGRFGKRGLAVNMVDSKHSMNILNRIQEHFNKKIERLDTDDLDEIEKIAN

Sequence of Nuclear pore complex protein Nup214 (Homo sapiens), P35658-1 V353A (P35658 whole entry V353A, one chain of several): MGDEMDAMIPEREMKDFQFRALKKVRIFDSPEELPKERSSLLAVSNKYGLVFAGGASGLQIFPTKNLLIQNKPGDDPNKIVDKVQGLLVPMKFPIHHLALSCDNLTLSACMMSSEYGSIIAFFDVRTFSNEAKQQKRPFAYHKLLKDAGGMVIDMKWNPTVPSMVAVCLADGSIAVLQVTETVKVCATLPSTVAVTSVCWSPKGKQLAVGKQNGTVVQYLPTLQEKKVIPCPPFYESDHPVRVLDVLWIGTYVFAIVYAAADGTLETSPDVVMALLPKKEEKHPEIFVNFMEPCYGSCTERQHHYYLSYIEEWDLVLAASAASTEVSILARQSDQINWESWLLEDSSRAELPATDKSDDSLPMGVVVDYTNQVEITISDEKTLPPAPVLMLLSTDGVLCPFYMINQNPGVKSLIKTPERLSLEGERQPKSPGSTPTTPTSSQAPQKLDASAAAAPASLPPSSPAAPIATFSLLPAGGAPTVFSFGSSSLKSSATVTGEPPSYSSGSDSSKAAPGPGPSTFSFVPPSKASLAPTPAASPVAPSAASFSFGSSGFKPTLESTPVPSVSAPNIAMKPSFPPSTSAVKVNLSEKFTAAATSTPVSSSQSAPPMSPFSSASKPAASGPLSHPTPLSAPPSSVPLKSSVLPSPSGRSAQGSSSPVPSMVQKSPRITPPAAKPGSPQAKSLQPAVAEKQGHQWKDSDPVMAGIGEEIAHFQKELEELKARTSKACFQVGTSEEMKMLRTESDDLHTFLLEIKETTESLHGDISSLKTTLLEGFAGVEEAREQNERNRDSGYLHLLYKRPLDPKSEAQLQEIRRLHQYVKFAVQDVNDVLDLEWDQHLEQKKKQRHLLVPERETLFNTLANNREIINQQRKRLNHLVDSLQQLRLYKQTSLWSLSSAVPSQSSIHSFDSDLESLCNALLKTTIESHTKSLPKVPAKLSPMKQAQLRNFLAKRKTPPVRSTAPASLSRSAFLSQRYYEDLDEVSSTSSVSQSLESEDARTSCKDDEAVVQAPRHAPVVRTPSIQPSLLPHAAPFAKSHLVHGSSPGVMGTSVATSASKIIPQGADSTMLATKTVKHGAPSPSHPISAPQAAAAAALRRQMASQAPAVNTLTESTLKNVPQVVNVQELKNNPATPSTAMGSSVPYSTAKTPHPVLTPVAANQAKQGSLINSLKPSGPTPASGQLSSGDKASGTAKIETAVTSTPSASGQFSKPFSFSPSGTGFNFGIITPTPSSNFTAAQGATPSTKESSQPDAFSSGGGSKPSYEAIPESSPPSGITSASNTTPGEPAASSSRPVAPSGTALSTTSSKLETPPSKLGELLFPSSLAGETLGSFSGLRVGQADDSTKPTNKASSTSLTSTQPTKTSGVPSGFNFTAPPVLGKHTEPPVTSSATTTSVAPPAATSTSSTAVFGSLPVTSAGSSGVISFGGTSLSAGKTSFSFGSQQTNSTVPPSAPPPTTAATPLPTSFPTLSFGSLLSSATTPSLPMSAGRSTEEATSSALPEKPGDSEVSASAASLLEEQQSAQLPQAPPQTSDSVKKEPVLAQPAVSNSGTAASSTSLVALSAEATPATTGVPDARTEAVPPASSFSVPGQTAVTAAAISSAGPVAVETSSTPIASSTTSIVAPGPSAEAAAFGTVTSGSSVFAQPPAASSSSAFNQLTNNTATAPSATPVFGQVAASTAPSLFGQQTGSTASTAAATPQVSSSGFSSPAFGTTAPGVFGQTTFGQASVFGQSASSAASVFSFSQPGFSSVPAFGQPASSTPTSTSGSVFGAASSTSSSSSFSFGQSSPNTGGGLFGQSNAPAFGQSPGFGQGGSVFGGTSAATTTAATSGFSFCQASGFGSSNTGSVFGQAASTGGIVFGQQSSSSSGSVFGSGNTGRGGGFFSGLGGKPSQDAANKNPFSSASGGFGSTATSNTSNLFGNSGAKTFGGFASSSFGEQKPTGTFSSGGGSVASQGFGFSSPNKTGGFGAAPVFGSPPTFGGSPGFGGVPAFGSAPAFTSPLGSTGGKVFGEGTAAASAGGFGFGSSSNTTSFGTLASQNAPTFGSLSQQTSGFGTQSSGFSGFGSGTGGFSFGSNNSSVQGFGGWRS
Sequence of Nuclear pore complex protein Nup214 (Homo sapiens), P35658-1 D359R (P35658 whole entry D359R, one chain of several): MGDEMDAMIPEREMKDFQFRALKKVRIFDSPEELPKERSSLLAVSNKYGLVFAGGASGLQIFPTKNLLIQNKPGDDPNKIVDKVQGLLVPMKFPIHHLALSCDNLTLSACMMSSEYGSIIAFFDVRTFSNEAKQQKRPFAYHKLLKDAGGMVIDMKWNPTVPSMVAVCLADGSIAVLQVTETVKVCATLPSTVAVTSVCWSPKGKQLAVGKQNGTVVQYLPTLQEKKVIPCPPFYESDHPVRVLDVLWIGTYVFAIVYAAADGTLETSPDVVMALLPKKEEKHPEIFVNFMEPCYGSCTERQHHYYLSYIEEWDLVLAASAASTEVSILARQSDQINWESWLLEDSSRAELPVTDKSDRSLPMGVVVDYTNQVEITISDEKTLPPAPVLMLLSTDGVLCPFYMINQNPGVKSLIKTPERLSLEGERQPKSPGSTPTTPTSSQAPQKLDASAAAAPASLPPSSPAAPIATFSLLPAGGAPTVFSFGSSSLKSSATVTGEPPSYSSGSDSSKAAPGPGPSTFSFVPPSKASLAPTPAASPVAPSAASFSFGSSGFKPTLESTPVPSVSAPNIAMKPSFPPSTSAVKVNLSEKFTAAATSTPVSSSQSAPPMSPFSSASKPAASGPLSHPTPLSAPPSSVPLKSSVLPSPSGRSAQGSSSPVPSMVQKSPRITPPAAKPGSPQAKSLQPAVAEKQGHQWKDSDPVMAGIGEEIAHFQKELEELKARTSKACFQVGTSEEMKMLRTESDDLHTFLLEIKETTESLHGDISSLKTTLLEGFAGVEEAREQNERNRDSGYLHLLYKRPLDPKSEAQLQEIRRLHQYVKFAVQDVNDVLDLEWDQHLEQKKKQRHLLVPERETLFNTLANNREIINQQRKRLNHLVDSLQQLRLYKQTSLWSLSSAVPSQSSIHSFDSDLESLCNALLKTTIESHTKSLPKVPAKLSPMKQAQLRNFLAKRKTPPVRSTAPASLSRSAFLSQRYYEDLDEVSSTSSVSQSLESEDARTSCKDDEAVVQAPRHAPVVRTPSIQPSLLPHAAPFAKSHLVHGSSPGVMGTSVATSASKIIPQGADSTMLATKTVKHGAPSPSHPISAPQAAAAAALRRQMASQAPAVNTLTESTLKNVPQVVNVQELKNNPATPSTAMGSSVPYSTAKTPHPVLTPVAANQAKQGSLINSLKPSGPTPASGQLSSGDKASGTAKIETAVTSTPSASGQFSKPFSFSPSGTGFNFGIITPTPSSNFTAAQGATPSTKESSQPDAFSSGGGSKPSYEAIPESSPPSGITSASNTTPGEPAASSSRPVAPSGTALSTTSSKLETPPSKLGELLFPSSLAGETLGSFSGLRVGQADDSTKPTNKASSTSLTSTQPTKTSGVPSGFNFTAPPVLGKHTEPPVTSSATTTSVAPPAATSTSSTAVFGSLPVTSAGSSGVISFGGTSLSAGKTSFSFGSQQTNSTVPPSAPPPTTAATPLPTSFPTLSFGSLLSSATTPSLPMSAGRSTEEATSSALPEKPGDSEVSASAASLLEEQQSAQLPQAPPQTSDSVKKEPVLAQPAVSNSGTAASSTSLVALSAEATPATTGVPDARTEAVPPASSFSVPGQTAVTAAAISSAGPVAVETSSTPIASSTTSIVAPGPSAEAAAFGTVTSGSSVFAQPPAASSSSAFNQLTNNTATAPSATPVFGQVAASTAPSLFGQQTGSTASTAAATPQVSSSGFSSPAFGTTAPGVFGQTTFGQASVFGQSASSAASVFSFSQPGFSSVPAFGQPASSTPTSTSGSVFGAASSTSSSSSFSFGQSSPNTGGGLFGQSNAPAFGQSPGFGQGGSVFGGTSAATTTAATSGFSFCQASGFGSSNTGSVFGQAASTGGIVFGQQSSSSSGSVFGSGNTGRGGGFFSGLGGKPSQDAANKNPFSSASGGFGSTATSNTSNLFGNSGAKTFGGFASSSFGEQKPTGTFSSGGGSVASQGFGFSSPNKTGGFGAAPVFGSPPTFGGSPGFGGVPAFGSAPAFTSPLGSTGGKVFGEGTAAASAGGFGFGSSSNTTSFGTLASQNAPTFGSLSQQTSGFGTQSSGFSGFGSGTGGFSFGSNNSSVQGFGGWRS

effect of a mutation on the interaction	Substance
disrupting interaction	Nuclear pore complex protein Nup214 (Homo sapiens), P35658-1 D359R
decreasing interaction	Nuclear pore complex protein Nup214 (Homo sapiens), P35658-1 V353A
